# Source: patent US20060269997A1 (Genentech, published 2006)
# B1: WT VEGF (ligand, human, UniProt P15692-4 27-191, looked up)
# VEGF monomer: APMAEGGGQNHHEVVKFMDVYQRSYCHPIETLVDIFQEYPDEIEYIFKPSCVPLMRCGGCCNDEGLECVPTEESNITMQIMRIKPHQGQHIGEMSFLQHNKCECRPKKDRARQENPCGPCSERRKHLFVQDPQTCKCSCKNTDSRCKARQLELNERTCRCDKPRR
# B2: Flt-sel (I43A/I46A/Q79A/I83A, VEGF 1-109 form) (ligand, human, UniProt P15692-4 27-135, looked up)
# chain: APMAEGGGQNHHEVVKFMDVYQRSYCHPIETLVDIFQEYPDEAEYAFKPSCVPLMRCGGCCNDEGLECVPTEESNITMAIMRAKPHQGQHIGEMSFLQHNKCECRPKKD
# notes: also called Flt-1-sel; Flt-1 selective variant
# B3: LK-VRB-1s* (ligand, human, UniProt P15692-4 27-135, looked up)
# chain: APMAEGGGQNHHEVVKFEDVLRRSSCHPIETLVDIFQEYPDEIEYIFKPSCVPLMRCGGCCNDEGLECVPTEESNITMQIMRIKPHQGQHIGEMSFLQHNKCECRPKKD
# B4: LK-VRB-2s* (ligand, human, UniProt P15692-4 27-135, looked up)
# chain: APMAEGGGQNHHEVVKFMDVYQRSYCHPIETLVDIFQEYPDEIEYIFKPSCVPLMRCGGCCNSEMRECVPTEESNITMQIMRIKPHQGQHIGEMSFLQHNKCECRPKKD
# notes: also called KDR selective variant
# B5: native VEGF (8-109) (ligand, human, UniProt P15692 214-315, looked up)
# chain: GQNHHEVVKFMDVYQRSYCHPIETLVDIFQEYPDEIEYIFKPSCVPLMRCGGCCNDEGLECVPTEESNITMQIMRIKPHQGQHIGEMSFLQHNKCECRPKKD
# modifications: biotinylated where used as tracer
# Columns and labels:
# [1] = molecular target: T1, Flt-1 on Flt-1-transfected NIH3T3 cells (UniProt P17948 27-1338, limits assumed); assay: competitive displacement of 125I-VEGF (legend: 1-165; Example 7: 1-109) from Flt-1-transfected NIH3T3 cells
# T1 construct: whole, on cells; also called FLT-1 expressing NIH3T3 cells; Flt-1-transfected cells
# T1 sequence (P17948 27-1338 limits assumed): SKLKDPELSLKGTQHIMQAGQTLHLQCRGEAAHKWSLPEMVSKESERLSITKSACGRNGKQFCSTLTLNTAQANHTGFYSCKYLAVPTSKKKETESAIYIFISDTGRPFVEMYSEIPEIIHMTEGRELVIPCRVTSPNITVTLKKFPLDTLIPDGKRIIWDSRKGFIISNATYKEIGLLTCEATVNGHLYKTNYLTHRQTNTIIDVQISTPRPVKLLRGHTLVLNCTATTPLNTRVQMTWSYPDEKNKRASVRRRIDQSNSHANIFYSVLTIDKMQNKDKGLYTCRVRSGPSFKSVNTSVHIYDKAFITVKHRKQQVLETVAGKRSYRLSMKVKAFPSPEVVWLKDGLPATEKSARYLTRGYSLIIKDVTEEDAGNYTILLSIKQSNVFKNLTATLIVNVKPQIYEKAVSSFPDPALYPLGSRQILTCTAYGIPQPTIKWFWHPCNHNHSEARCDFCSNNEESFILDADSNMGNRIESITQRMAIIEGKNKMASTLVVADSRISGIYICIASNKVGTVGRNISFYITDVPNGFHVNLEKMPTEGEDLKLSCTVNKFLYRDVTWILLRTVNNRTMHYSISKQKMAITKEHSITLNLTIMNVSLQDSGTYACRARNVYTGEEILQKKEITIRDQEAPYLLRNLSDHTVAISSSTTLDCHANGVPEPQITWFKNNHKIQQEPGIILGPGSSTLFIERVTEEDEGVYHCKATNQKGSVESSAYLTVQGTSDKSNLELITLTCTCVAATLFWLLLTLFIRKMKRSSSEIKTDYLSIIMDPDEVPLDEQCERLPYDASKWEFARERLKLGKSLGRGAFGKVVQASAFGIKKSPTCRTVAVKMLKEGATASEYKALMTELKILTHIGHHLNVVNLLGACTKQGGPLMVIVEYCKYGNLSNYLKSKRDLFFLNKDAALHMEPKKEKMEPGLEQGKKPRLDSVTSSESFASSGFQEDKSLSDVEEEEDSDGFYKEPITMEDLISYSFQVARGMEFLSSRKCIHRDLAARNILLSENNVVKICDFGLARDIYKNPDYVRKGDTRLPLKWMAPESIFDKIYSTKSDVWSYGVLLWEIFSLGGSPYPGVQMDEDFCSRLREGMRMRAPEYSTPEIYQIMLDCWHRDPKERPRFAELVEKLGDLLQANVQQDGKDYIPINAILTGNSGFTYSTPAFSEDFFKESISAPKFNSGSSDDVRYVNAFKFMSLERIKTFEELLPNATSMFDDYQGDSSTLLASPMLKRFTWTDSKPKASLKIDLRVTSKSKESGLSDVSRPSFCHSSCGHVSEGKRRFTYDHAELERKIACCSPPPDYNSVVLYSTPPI
# Method: (§1) KDR or Flt-1 transfected NIH3T3 cells were prepared as described by Fuh et al., J. Biol. Chem., 273:11187-11204 (1998). The transfected cells were maintained in F12 media supplemented with 10% FBS and 400 ug/ml G418 (GibcoBRL). For the binding assays, the cells were plated in 12-wells plates at 1×10⁶/well to reach confluency next day. […] The plates were incubated at 4° C. for three hours and then washed two times with HBS with […].
# [2] = molecular target: T2, KDR on KDR-transfected NIH3T3 cells (UniProt P35968 20-1356, limits assumed); assay: competitive displacement of 125I-VEGF (legend: 1-165; Example 7: 1-109) from KDR-transfected NIH3T3 cells
# T2 construct: whole, on cells; also called KDR expressing NIH3T3 cells; KDR-transfected 3T3 cells
# T2 sequence (P35968 20-1356 limits assumed): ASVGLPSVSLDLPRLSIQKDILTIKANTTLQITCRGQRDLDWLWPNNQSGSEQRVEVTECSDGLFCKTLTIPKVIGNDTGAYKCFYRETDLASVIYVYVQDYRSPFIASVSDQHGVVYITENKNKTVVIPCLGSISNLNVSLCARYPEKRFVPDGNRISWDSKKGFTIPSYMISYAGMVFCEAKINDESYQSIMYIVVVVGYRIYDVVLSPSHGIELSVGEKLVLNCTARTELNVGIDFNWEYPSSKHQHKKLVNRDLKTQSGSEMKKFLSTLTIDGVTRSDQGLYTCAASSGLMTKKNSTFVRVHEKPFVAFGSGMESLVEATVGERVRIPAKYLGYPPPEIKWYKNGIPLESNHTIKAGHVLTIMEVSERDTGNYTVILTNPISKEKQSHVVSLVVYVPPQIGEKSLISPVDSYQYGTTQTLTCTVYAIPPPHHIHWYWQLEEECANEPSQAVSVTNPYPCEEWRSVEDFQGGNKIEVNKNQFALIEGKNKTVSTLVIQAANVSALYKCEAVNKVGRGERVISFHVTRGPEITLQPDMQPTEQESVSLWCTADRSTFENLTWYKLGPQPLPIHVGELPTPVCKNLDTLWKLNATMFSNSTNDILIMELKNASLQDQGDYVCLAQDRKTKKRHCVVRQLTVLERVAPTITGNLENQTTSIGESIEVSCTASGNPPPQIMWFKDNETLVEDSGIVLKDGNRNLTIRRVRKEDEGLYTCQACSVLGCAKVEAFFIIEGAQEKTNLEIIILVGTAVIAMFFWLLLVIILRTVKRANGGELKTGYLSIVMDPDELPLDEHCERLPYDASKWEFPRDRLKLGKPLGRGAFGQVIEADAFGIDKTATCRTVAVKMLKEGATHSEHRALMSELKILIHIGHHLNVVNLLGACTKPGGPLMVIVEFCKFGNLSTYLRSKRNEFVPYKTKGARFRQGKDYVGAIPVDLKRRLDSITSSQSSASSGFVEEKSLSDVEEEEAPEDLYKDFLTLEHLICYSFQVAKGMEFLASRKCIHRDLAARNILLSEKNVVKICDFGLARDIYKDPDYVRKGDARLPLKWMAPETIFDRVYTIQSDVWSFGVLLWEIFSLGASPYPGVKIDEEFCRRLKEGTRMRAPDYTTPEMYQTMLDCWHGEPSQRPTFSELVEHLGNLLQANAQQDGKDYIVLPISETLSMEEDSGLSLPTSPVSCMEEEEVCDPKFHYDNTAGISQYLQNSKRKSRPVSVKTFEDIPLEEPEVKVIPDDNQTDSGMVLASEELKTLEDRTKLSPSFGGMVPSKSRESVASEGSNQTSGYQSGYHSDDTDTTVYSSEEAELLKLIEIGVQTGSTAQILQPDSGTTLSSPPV
# Method: as §1
# [3] = molecular target: KDR receptor (soluble RIA of Examples 6 and 8) (UniProt P35968); assay: soluble radio-immuno receptor-binding assay (RIA)
# Sequence of KDR receptor (soluble RIA of Examples 6 and 8) (UniProt P35968) (P35968 20-764 limits assumed): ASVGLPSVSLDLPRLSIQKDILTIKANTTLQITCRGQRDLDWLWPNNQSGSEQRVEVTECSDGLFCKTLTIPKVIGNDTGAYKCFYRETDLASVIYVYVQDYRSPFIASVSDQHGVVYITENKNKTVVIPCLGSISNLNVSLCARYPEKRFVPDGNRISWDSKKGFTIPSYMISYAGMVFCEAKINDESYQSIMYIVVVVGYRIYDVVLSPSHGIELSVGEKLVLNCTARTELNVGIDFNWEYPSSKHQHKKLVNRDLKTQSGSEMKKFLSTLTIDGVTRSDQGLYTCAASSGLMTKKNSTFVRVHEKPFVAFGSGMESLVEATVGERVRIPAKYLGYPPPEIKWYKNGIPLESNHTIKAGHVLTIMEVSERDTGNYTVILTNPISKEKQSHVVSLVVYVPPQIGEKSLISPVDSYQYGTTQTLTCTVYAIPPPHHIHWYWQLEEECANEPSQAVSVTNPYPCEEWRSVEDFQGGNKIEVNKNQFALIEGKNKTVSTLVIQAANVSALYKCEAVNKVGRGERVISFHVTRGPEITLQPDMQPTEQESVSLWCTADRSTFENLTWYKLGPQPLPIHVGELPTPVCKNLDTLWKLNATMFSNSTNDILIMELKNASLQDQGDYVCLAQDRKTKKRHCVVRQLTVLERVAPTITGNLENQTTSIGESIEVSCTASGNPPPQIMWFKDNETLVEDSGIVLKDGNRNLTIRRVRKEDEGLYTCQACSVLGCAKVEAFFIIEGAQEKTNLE
# [4] = molecular target: T3, Flt-IgG (a chimeric Flt-human Fc molecule) (UniProt P17948 27-758, limits assumed); assay: competition ELISA vs biotinylated native VEGF, Flt-IgG captured by anti-Fc
# T3 construct: Only described as a chimeric Flt-human Fc molecule; not shown: human Fc
# T3 sequence (P17948 27-758 limits assumed, change not shown): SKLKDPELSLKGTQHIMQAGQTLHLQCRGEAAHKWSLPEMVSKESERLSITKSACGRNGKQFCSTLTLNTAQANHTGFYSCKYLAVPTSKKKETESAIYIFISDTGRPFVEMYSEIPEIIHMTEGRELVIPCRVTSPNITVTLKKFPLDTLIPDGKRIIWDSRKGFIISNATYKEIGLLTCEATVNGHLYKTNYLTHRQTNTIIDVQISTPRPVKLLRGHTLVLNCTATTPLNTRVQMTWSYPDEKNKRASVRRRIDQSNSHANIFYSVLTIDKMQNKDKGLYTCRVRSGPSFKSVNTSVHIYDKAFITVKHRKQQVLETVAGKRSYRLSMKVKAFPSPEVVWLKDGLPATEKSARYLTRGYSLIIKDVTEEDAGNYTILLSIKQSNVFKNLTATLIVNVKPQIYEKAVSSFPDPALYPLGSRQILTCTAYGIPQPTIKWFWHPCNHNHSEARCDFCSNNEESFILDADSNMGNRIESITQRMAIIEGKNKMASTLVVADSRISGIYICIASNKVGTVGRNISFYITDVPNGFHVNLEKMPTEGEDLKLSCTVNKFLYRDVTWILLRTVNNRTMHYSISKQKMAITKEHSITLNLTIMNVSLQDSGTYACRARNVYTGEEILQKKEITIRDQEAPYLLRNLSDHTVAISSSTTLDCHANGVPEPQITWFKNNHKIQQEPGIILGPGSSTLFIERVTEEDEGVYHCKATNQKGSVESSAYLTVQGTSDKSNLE
# Method: (§2) Receptor binding assays were performed in 96-well immunoplates (Maxisorp, Nunc-Immunoplate, Nalge Nunc International, Rochester, N.Y.). Each well was coated with 100 μl of a solution containing 2 μg/ml of rabbit F(ab′)2 to human IgG Fc (Jackson ImmunoResearch, West Grove, Pa.) in 50 mM carbonate buffer at pH 9.6 and incubated at 4° C. overnight. The supernatant was then discarded, the wells were washed three times in washing buffer (0.05% Tween 20 in PBS), and the plate was blocked (150 μl per well) with block buffer (0.5% BSA, 0.01% thimerosal in PBS) at room temperature for one hour. The supernatant was discarded, and the wells were washed.
# The wells were filled with 100 μl of a solution containing Flt-IgG (a chimeric Flt-human Fc molecule) at 50 ng/ml in assay buffer (0.5% BSA, 0.05% Tween 20 in PBS). The wells were incubated at room temperature for 1 hour and then washed three times in wash buffer (0.05% Tween 20 in PBS).
# (§3) Aliquots of the mixture (100 μl) were added to the precoated microtiter wells and the plate was incubated for 2 hours at room temperature. […] The wells were then incubated with 3,3′, 5,5′-tetramethyl benzidine (0.2 g/liter, Kirkegaard & Perry Laboratories, Gaithersburg, Md.) for about 10 minutes at room temperature. Absorbance was read at 450 nm on a Vmax plate reader (Molecular Devices, Menlo Park, Calif.).
# KDR (1-3) monomer [5] = molecular target: T4, KDR (1-3) monomer (UniProt P35968 20-327, limits assumed, biotin-labeled in the ELISA of Example 8); assay: competition ELISA vs biotinylated VEGF (8-109), soluble KDR (1-3) captured by MAKD5
# T4 construct: domain: domains 1 to 3; Genentech reagent; also called domains 1 to 3 of KDR
# T4 sequence (P35968 20-327 limits assumed): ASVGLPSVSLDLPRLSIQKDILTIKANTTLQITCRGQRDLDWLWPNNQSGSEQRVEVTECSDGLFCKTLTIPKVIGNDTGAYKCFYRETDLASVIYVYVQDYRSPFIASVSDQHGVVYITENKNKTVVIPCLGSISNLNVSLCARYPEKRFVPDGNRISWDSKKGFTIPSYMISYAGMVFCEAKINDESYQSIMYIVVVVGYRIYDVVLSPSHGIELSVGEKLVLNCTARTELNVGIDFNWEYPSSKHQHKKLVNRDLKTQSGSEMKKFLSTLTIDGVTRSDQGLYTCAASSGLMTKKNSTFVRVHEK
# Method: as §2, with “containing 8” for “containing 2”, “of a monoclonal antibody” for “of rabbit F(ab′)2”, “to KDR known as MAKD5 (Genentech, South San Francisco, Calif.)” for “to human IgG Fc (Jackson ImmunoResearch, West Grove, Pa.)”, “was” for “was then”
# as §3, with “of this” for “of the”, “for 1 hour” for “for 2 hours”, “(0.2 gram/liter;” for “(0.2 g/liter,”
# (§4) Titration curves were fit with a four-parameter nonlinear regression curve-fitting program (KaleidaGraph, Synergy Software, Reading, Pa.).
# [6] = molecular target: FLT-1 receptor (soluble RIA of Examples 6 and 8) (UniProt P17948 27-758, limits assumed); assay: radio-immuno receptor-binding assay (RIA)
# Sequence of FLT-1 receptor (soluble RIA of Examples 6 and 8) (P17948 27-758 limits assumed): as the sequence (P17948 27-758 limits assumed, change not shown) above
# [7] = molecular target: KDR receptor (soluble RIA of Examples 6 and 8) (UniProt P35968 20-764, limits assumed); assay: radio-immuno receptor-binding assay (RIA)
# Sequence of KDR receptor (soluble RIA of Examples 6 and 8) (UniProt P35968 20-764, limits assumed) (P35968 20-764 limits assumed): as the sequence (P35968 20-764 limits assumed) above
# [8] = molecular target: KDR on human umbilical vein endothelial cells (HUVEC) (human, UniProt P35968 20-1356); assay: cell-based or functional assay
# Sequence of KDR on human umbilical vein endothelial cells (HUVEC) (P35968 20-1356): as the sequence (P35968 20-1356 limits assumed) above
# [9] = molecular target: gD-KDR receptor on CHO cells (UniProt P35968 20-1356); assay: cell-based or functional assay
# KDR (1-3) monomer [10] = molecular target: T4, KDR (1-3) monomer; assay: competition ELISA: inhibits binding of biotinylated native VEGF (8-109) to KDR (1-3) captured by antibody MAKD5 (Example 2)
# Method: as §2, with “containing 8” for “containing 2”, “of a monoclonal antibody” for “of rabbit F(ab′)2”, “to KDR known as MAKD5 (Genentech, South San Francisco, Calif.)” for “to human IgG Fc (Jackson ImmunoResearch, West Grove, Pa.)”, “was” for “was then”
# as §3, with “of this” for “of the”, “for 1 hour” for “for 2 hours”, “(0.2 gram/liter;” for “(0.2 g/liter,”
# as §4
binder,measurement,setting,value
B1,IC50 (read off the curve),[1],~0.04 nM
B2,binding result,[2],no binding (tested: log -6.7 M (about 2e-7 M))
same,binding result,[1],binds
same,fold reduced KDR-binding affinity (against native VEGF),[3],> 470 fold
B3,IC50,[4],2700 nM
same,Relative Binding Affinity (ratio to native VEGF (8-109)),[4],6000 fold
same,IC50,KDR (1-3) monomer [5],1 nM
same,Relative Binding Affinity (ratio to native VEGF (8-109)),KDR (1-3) monomer [5],1 fold
same,Relative Binding Affinity (ratio to native VEGF 165),[6],14000 fold
same,Relative Binding Affinity (ratio to native VEGF 165),[7],20 fold
same,"Endothelial Cell Proliferation Activity (HUVEC), ratio to native VEGF (8-109)",[8],0.2 fold
same,"Endothelial Cell Proliferation Activity (HUVEC, 3H-thymidine), concentration",[8],0.1 nM
same,"Phosphorylation-Inducing Activity (KIRA), midpoint concentration",[9],1 nM
same,"Phosphorylation-Inducing Activity (KIRA), ratio to native VEGF (8-109)",[9],0.5 fold
B4,IC50 (read off the curve),[2],~0.8 nM
same,"Endothelial Cell Proliferation Activity (HUVEC, 3H-thymidine), concentration",[8],0.05 nM
same,"Phosphorylation-Inducing Activity (KIRA), midpoint concentration",[9],2 nM
same,IC50 (read off the curve),[1],~10 nM
B5,IC50 (read off the curve),KDR (1-3) monomer [10],~2 nM
same,IC50,[4],0.42 nM
same,"Endothelial Cell Proliferation Activity (HUVEC, 3H-thymidine), concentration",[8],0.5 nM
same,"Phosphorylation-Inducing Activity (KIRA), midpoint concentration",[9],2 nM
